Laboratory results from patent US20250213627A1 (BAYLOR COLLEGE OF MEDICINE, published 2025).

Legend:
[1] = molecular target: Kv1.3 potassium channel (species not stated for this experiment); assay: cell-based or functional assay
[2] = molecular target: mKv1.3 channel stably expressed in mouse L929 fibroblasts (mouse, UniProt P16390 1-528); assay: cell-based or functional assay
Sequence of mKv1.3 channel stably expressed in mouse L929 fibroblasts (P16390 whole entry): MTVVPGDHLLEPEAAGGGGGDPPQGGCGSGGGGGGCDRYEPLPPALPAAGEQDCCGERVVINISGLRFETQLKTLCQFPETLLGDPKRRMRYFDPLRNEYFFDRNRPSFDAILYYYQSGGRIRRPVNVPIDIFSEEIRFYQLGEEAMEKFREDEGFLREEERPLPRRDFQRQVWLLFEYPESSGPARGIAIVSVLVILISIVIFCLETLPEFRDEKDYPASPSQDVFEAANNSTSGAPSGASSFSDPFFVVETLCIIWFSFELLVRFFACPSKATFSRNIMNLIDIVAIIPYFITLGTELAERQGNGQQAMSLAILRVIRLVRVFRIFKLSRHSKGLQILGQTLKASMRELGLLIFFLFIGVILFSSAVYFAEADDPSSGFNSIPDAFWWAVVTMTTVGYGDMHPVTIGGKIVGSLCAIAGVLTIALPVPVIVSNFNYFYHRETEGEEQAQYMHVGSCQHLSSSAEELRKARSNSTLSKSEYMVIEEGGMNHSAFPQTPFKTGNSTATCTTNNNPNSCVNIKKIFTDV

B1: synthetic ShK-235 (peptide)
peptide: RSCIDTIPKSRCTAFKCKHSIKYRLSFCRKTCGTCA
modifications: 3 disulfide bonds (oxidatively folded synthetic peptide)
[1]
  IC50 of block of Kv1.3 channel function (whole-cell patch-clamp): 0.062 nM
[2]
  IC50 of block of mKv1.3 currents (whole-cell patch-clamp, L929 cells): 0.0693 nM
